The values below come from patent US20260132192A1 (XBIOTECH, published 2026).

For this experiment, the target named is T1, recombinant human IL-1α (human, UniProt P01583 113-271).
T1 sequence (looked up): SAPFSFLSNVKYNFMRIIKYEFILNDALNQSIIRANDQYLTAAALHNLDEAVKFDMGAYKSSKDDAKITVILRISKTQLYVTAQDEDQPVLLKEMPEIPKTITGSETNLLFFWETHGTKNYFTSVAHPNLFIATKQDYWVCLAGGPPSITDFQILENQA
The experiment is described as follows: cell-based or functional assay.

B1: human monoclonal antibody designated XIA12 (antibody, V domains shown)
VH: QVQLVQSGAEVKKPGSSVKVSCKASGGRFTNYAILWVRQAPGQGLQWLGGIIPIFDETDHAQDFQDRLTITVDESMTTAYMELSSLRPEDTAIYYCATGSNSYYGLYWGQGTLVTVSS
VL: DIVMTQSPDFLAVSLGERATINCKSSQSVLYSSDNKNYLAWYQQKAGQPPKLLIYWASTRESGVPDRFSGSGSATDFTLTISSLQAEDVAVYYCQQYYSLPITFGQGTRLEIKR
For the molecule B1, the “HUVEC-based potency assay; ICAM-1 expression by flow cytometry after hIL-1α stimulation; IC50” value is 18.7 ng/mL.
